Reference: patent US20170145086A1 (VISTERRA, published 2017)

Experiments:
[1] = target: T1, HA-GCN4 hAPRIL (amino acid residues 105-250) (human, UniProt O75888 105-250); experiment: blocking ELISA; blocked: human APRIL binding to human BCMA-Fc; parameters: concentration or dose not given beside the values
T1 construct: Bought (R&D Systems); also called HA-tagged GCN4 human APRIL; HA-GCN4-huAPRIL; not shown: N-terminal HA tag; GCN4 isoleucine zipper oligomerization domain
T1 sequence: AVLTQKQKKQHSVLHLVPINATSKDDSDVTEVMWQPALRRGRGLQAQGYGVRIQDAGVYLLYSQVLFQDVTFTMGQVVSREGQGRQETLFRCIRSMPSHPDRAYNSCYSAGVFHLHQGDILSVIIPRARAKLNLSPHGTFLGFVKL
Method: (§1) FIGS. 19A-19B depict the antibody inhibition of APRIL binding to TNFSF receptors TACI (FIG. 19A) and BCMA (FIG. 19B). Assay is based on blocking ELISA using recombinant human APRIL (R&D Systems) and Human TACI-Fc. Inhibition was analyzed by non-linear regression using a four parameter fit.
(§2) Recombinant TACI-Fc or BCMA-Fc was coated on 96 well plates in 0.1 M carbonate-bicarbonate buffer (pH 9.6), overnight at 4° C. Plates were washed three times with 1×PBST (PBS+0.025% Tween 20) followed by blocking with 1% BSA in 1×PBS, 37° C. for 1 hour. All subsequent wash steps were carried out with 1×PBST. To assess antibody blocking, either 15 ng/mL or 50 ng/mL HA-GCN4-huAPRIL was preincubated with varying antibody concentrations ranging from 0.03-30 μg/mL in binding buffer comprised of 1% BSA and 0.025% Tween-20 in 1×PBS. Preincubation was carried out at 30° C. for 1 hour with mixing. Antibody-APRIL premix with 50 ng/mL APRIL or 15 ng/mL APRIL was then added to TACI-Fc coated or BCMA-Fc coated plates, respectively, and incubated for an additional hour at 30° C. HA-tagged APRIL binding to either receptor was quantified using a goat polyclonal anti-HA tag-HRP antibody (Abcam) added at a 1:10000 dilution followed by colorimetric development using 100 μl/well of freshly prepared TMB substrate (KPL) carried out for up to 30 minutes at room temperature before quenching enzymatic reaction by the addition of 1N sulfuric acid. ELISA signal was quantified by absorbance at 450 nm. ELISA data was analyzed by non-linear regression. IC₅₀ values were calculated based on a 4 parameter fit of antibody titration curves. […] Non-blocking antibodies Aprly-1 or Aprly-5 (Enzo Biosciences) were used as negative controls. Mouse specific, blocking antibody aprily-1-1 (Adipogen) was generally used as a positive control in experiments using mouse APRIL (HA-GCN4-mAPRIL).

[2] = target: T1, HA-GCN4 hAPRIL (amino acid residues …); experiment: blocking ELISA; blocked: human APRIL binding to human TACI-Fc; parameters: concentration or dose not given beside the values
Method: as §1, §2

[3] = target: T1, HA-GCN4 hAPRIL (amino acid residues …); experiment: blocking ELISA, 4-parameter fit; blocked: human APRIL binding to human BCMA-Fc
Method: as §1, §2

[4] = target: T1, HA-GCN4 hAPRIL (amino acid residues …); experiment: blocking ELISA, 4-parameter fit; blocked: human APRIL binding to human TACI-Fc
Method: as §1, §2

[5] = target: T1, HA-GCN4 hAPRIL (amino acid residues …); experiment: indirect ELISA on human APRIL; column head prints IC50 (pM), legend paragraph 725 calls the values EC50
Text: Purified antibodies were further characterized for APRIL binding, APRIL species cross reactivity (human APRIL vs. mouse APRIL), and receptor blocking activity using TACI-Fc. For binding, an APRIL-based indirect ELISA was used to determine by first approximation the relative affinity of purified anti-APRIL antibodies to either human APRIL or mouse APRIL. ELISA method was as generally described above. […] Blocking and wash steps were completed as described. Binding of anti-APRIL antibodies to APRIL was quantified using an 8 point dilution of test antibody that spanned over a four log scale. Antibody binding to APRIL was detected using a rabbit anti-mouse IgG (H+L)-HRP conjugate (Jackson ImmunoResearch Laboratories). Antibody binding data was analyzed by non-linear regression analysis using a 3 parameter fit to determine max binding and apparent EC₅₀ values. […] Mouse specific antibody Apry-1-1 (Adipogen) was likewise used for quantification of antibody binding to mouse APRIL.

[6] = target: T1, HA-GCN4 hAPRIL (amino acid residues …); experiment: blocking ELISA; blocked: human APRIL binding to BCMA-Fc
Method: as §2
Assay is based on receptor blocking ELISA using recombinant human APRIL (R&D Systems) and either human TACI-Fc (FIG. 30A) or BCMA-Fc (FIG. 30B).

[7] = target: T1, HA-GCN4 hAPRIL (amino acid residues …); experiment: blocking ELISA; blocked: human APRIL binding to TACI-Fc
[8] = target: T1, HA-GCN4 hAPRIL (amino acid residues …); experiment: indirect ELISA on human APRIL
[9] = target: T1, HA-GCN4 hAPRIL (amino acid residues …); experiment: cell-based or functional assay
[10] = target: T1, HA-GCN4 hAPRIL (amino acid residues …); experiment: blocking ELISA; blocked: human APRIL binding to human BCMA-Fc; parameters: concentration or dose not given beside the values; remark: listed apart in the source
Method: as §2

[11] = target: T1, HA-GCN4 hAPRIL (amino acid residues …); experiment: blocking ELISA; blocked: human APRIL binding to human TACI-Fc; parameters: concentration or dose not given beside the values; remark: listed apart in the source
Method: as §2

[12] = target: T1, HA-GCN4 hAPRIL (amino acid residues …); experiment: blocking ELISA, 4-parameter fit; blocked: human APRIL binding to human BCMA-Fc; remark: listed apart in the source
Method: as §2

[13] = target: T1, HA-GCN4 hAPRIL (amino acid residues …); experiment: blocking ELISA, 4-parameter fit; blocked: human APRIL binding to human TACI-Fc; remark: listed apart in the source
Method: as §2

Row | Binder | IC50 [6] | Relative Activity (normalised to 2419) [6] | IC50 [7] | Relative Activity (normalised to 2419) [7] | EC50 [8] | other results
1 | 3934 (antibody, V domains shown, also called monoclonal antibody 3934) VH: QVQLQQSGPELVKPGASVKLSCKAAGYIFTDYTINWVKQSPGQGLEWIGWIYPGSGNRKYNDKFKGKATMTADKSSSTAYMQLSSLTSEDSAVYFCARESNYVGYYAMDYWGQGTSVTVSS VL: DVLMTQTPLSLPVSLGDQASISCRSSQSVVNSNGNTYLEWYLQKPGQSPNLLIYKVSNRFSGVPDRFSGSGSGTDFTLKISRVEAEDLGVYYCFQGSHVPWTFGGGTKLEIK | – | – | – | – | – | % Inhibition [1]: 98%; % Inhibition [2]: 96%; IC50 [3]: 0.21 nM; IC50 [4]: 2.43 nM; EC50 [5]: 0.0101 nM
2 | 2419-0406 (antibody, V domains shown) VH: QVQLVQSGAEVKKPGSSVKVSCKASGYTFTDYTIHWVRQAPGQGLEWMGWIYPLRGSINYAEKFKGRVTLTADKSTSTVYMELSSLRSEDTAVYFCARHGAYYSNAFDYWGQGTLVTVSS VL: EIVMTQSPATLSVSPGERATLSCRASESVDNDGIRFLHWYQQKPGQAPRLLIYRASTRATGIPARFSGSGSRTEFTLTISSLQSEDFAVYYCQQSNKDPYTFGGGTKVEIK | 0.25 nM | 1.05 | 0.33 nM | 1.2 | – | –
3 | 2419-0806 (antibody, V domains shown) VH: EVQLVQSGAEVKKPGESLKISCKASGYTFTDYTIHWVRQMPGKGLEWMGWIYPLRGSINYSPSFQGQVTISADKSISTVYLQWSSLKASDTAMYFCARHGAYYSNAFDYWGQGTLVTVSS VL: EIVMTQSPATLSVSPGERATLSCRASESVDNDGIRFLHWYQQKPGQAPRLLIYRASTRATGIPARFSGSGSRTEFTLTISSLQSEDFAVYYCQQSNKDPYTFGGGTKVEIK | 0.21 nM | 0.89 | 0.32 nM | 1.17 | 0.00231 nM | –
4 | 2419-1310 (antibody, V domains shown) VH: QVQLVQSGAEVKKPGASVKVSCKASGYTFTDYTIHWVRQATGQGLEWMGWIYPLRGSINYAQKFQGRVTMTANKSISTVYMELSSLRSEDTAVYFCARHGAYYSNAFDYWGQGTLVTVSS VL: DIVMTQSPDSLAVSLGERATINCKSSQSVDNDGIRFLHWYQQKPGQPPKLLIYRASTRESGVPDRFSGSGSGTDFTLTISSLQAEDVAVYYCQQSNKDPYTFGGGTKVEIK | 0.27 nM | 1.14 | 0.3 nM | 1.09 | 0.00219 nM | –
5 | 2419-1306 (antibody, V domains shown) VH: QVQLVQSGAEVKKPGASVKVSCKASGYTFTDYTIHWVRQATGQGLEWMGWIYPLRGSINYAQKFQGRVTMTANKSISTVYMELSSLRSEDTAVYFCARHGAYYSNAFDYWGQGTLVTVSS VL: EIVMTQSPATLSVSPGERATLSCRASESVDNDGIRFLHWYQQKPGQAPRLLIYRASTRATGIPARFSGSGSRTEFTLTISSLQSEDFAVYYCQQSNKDPYTFGGGTKVEIK | 0.17 nM | 0.72 | 0.28 nM | 1.03 | 0.003 nM | IC50 (inhibition of APRIL-mediated BCMA NFκB signaling) [9]: ~0.3 nM; IC50 (inhibition of APRIL-mediated TACI NFκB signaling) [9]: ~0.66 nM
6 | 2419-1305 (antibody, V domains shown) VH: QVQLVQSGAEVKKPGASVKVSCKASGYTFTDYTIHWVRQATGQGLEWMGWIYPLRGSINYAQKFQGRVTMTANKSISTVYMELSSLRSEDTAVYFCARHGAYYSNAFDYWGQGTLVTVSS VL: EIVMTQSPATLSVSPGERATLSCRASESVDNDGIRFLHWYQQKPGQAPRLLIYRASNRETGIPARFSGSGSGTEFTLTISSLQSEDFAVYYCQQSNKDPYTFGGGTKVEIK | 0.15 nM | 0.62 | 0.29 nM | 1.06 | 0.00241 nM | –
7 | monoclonal antibody 2419-0205 (antibody, IgG2, V domains shown) VH: QVQLVQSGAEVKKPGSSVKVSCKASGYTFTDYTIHWVRQAPGQGLEWMGWIYPLRGSINYAQKFQGRVTITADKSTSTAYMELSSLRSEDTAVYFCARHGAYYSNAFDYWGQGTLVTVSS VL: EIVMTQSPATLSVSPGERATLSCRASESVDNDGIRFLHWYQQKPGQAPRLLIYRASNRETGIPARFSGSGSGTEFTLTISSLQSEDFAVYYCQQSNKDPYTFGGGTKVEIK | 0.17 nM | 0.71 | 0.31 nM | 1.12 | 0.00226 nM | IC50 (inhibition of APRIL-mediated BCMA NFκB signaling) [9]: ~0.32 nM; IC50 (inhibition of APRIL-mediated TACI NFκB signaling) [9]: ~0.81 nM
8 | monoclonal antibody 3327 (antibody, V domains shown) VH: EVQLQQSGPELVKPGASVKMSCKASGYSFTGYFMNWVKQSHGKSLEWIGRINPYNGDTFYNQKFKGKATLTVDKSSSTAHMELRSLTSEDSALYYCASEGDGYYWYFDVWGAGTTVTVSS VL: not shown | – | – | – | – | – | % Inhibition [10]: 99%; % Inhibition [11]: 89%; IC50 [12]: 2.35 nM; IC50 [13]: 3.16 nM
9 | 4540-033 (antibody, V domains shown) VH: QVQLVQSGAEVKKPGASVKVSCKASGYTFADYYINWVRQAPGQGLEWMGWIFPGSGSTYYAQKLQGRVTMTTDTSTSTAYMELRSLRSDDTAVYYCARGDSGRAMDYWGQGTLVTVSS VL: DIQMTQSPSSLSASVGDRVTITCQASQDINKYLAWYQHKPGKAPKLLIHYTSTLETGVPSRFSGSGSGTDFTFTISSLQPEDIATYYCLQYDNLLTFGGGTKVEIK | 3.68 nM | 15.6 | 0.35 nM | 1.26 | – | –
